Article PMC4549865, “The Escherichia coli NarL receiver domain regulates transcription through promoter specific functions” (BMC Microbiology, 2015)

B1: NarL N-terminal domain plus linker region (NarL^N, residues 2-141), unphosphorylated (domain or fragment, Escherichia coli, UniProt P0AF28 2-141, looked up)
chain: SNQEPATILLIDDHPMLRTGVKQLISMAPDITVVGEASNGEQGIELAESLDPDLILLDLNMPGMNGLETLDKLREKSLSGRIVVFSVSNHEEDVVTALKRGADGYLLKDMEPEDLLKALHQAAAGEMVLSEALTPVLAAS
notes: NarL, nitrate response regulator of Escherichia coli; residues 2-141 (in-frame beginning at Ser2, stop codon introduced at Leu142); receiver domain and linker helix alpha6; The pQE9 construction puts a Gly in the place of Met1, before Ser2; also called NarL^(N (2–141)); NarL RD; source: E. coli JM109 (pQE9 derivative pMJ99), purified (Ni-NTA resin or HiTrap chelating column)
B2: Phosphorylated NarL receiver domain with portion of the linker (NarL^N-P, residues 2-141) (domain or fragment, Escherichia coli, UniProt P0AF28 2-141, looked up)
chain: B1 chain
modifications: phosphorylated with acetyl phosphate; the site of phosphorylation is Asp59
notes: NarL, nitrate response regulator of Escherichia coli; residues 2-141 (in-frame beginning at Ser2, stop codon introduced at Leu142); receiver domain and linker helix alpha6; The pQE9 construction puts a Gly in the place of Met1, before Ser2; also called phosphorylated NarL^N; phosphorylated RD

Molecular target: the molecule itself
Assay: AUC; sedimentation equilibrium, 4 °C, Beckman Optima XL-A, absorption optics; samples at 60 μM and 160 μM in 25 mM Tris pH 7.5-8.5, 500 mM NaCl (other salts in some runs); 11,000-22,000 rpm; single-species fits and global fits of monomer-dimer and other models; monomer to dimer

| Protein | stoichiometry N |
| --- | --- |
| B1 | 2 |
| B2 | 2 |
